# Test results from patent US20090104196.
# Target: AR co-purified in the TAP-LSD1/AR complex (UniProt P10275)
# Sequence (P10275 whole entry, one chain of several): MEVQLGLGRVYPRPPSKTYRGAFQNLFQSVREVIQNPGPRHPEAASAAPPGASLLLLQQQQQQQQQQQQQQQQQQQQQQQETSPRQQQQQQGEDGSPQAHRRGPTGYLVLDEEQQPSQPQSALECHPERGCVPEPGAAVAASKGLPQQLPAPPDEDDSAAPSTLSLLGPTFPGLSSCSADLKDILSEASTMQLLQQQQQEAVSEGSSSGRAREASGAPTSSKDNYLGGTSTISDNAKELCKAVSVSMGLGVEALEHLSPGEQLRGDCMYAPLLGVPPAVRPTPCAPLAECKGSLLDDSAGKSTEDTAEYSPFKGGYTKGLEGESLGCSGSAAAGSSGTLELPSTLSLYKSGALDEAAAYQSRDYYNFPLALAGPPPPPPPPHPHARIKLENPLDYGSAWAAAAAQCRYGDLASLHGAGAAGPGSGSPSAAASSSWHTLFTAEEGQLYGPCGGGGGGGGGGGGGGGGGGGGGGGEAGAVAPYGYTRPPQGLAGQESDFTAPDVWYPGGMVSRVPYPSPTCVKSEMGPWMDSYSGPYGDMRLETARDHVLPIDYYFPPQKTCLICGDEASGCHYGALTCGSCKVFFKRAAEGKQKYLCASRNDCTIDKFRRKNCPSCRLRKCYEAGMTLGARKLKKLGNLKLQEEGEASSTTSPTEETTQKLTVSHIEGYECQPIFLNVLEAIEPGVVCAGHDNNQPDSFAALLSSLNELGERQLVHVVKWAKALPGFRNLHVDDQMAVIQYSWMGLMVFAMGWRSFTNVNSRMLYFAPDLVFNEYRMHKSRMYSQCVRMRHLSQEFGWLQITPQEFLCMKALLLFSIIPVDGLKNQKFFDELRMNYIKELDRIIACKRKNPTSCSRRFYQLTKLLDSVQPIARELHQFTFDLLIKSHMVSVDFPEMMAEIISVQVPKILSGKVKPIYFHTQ
substance,measurement,value
"TAP-LSD1 (LSD1 with N-terminal TAP tag), tandem affinity purified",demethylation of dimethyl H3-K9 on HeLa nucleosomes in vitro (Western blot),"The TAP-LSD1/AR complex demethylated dimethyl H3-K9 in vitro, whereas TAP-LSD1 or the TAP control failed to do so"
